Target: T1, recombinant PLAP extracellular domain protein (Sino Biological) (human, UniProt P05187 23-506)
T1 construct: Bought protein; also called purified recombinant PLAP protein; PLAP antigen
Experiment: BLI (Blitz ForteBio); antibody captured on anti-mouse-capture biosensors, PLAP antigen in solution
Description: The binding of PLAP antibody with recombinant PLAP extracellular domain protein from Sino Biological was performed using Blitz ForteBio system as described. In brief, anti-mouse-capture (AMC) biosensors were soaked in kinetics buffer (PBS, 0.1% Tween, 0.05% BSA) for 10 min and then with mouse anti-PLAP antibody at 0.1 mg/mL in same buffer for 30 min. After washing, biosensors were used to bind the PLAP antigen at different concentrations. The Kd was detected with Blitz system software.

T1 sequence (P05187 23-506): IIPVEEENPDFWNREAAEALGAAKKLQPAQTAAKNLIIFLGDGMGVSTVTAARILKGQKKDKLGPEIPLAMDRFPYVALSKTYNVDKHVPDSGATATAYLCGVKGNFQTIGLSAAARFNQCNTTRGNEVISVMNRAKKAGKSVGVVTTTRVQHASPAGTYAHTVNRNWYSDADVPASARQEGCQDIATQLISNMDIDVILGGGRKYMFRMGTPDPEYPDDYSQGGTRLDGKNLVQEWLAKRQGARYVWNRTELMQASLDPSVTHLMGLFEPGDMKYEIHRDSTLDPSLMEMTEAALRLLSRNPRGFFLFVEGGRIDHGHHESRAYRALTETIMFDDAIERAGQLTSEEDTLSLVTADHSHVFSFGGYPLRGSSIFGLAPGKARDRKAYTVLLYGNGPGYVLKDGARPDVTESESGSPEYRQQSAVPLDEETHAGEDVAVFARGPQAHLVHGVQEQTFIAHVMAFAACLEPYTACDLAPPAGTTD

- Kd: 3.2 nM
B1: mouse monoclonal PLAP antibody (clone H17E2) (antibody, V domains shown)
VH: QVQLKESGPGLVAPSQSLSITCTVSGFSLTSYGVSWVRQPPRKGLEWLGVIWEDGSTNYHSALISRLSINKDNSKSQVFLKLNSLQTDDTATYYCAKPHYGSSYVGAMEYWGQGTSVTVSS
VL: DIQMTQSPASLTASVGETVTITCRASENIYSYVAWYQQKQGKSPQFLVYNAKSLAEGVPSRFSGSGSGTQFSLKINSLQPEDFGNYYCQHHYVSPWTFGGGTKLEIR
notes: Bought whole mouse monoclonal antibody (Thermo Fisher / Ximbio); also called PLAP antibody H17E2; mouse anti-PLAP antibody

— patent publication US20210107996A1 (PROMAB BIOTECHNOLOGIES, published 2021)
